This passage reports Kd results from patent publication US20260070987A1.

The chains are these.
B1: equine IgG7 N434H mutant (antibody, part only; not given: Variable domains, not shown: another chain or arm of the molecule; small tags and cut ends)
constant: ASTTAPKVFPLASHSAATSGSTVALGCLVSSYFPEPVTVSWNSGALTSGVHTFPSVLQSSGLYSLSSMVTVPASSLKSQTYICNVAHPASSTKVDKKIVIKECGGCPTCPECLSVGPSVFIFPPKPKDVLMISRTPTVTCVVVDVGHDFPDVQFNWYVDGVETHTATTEPKQEQNNSTYRVVSILAIQHKDWLSGKEFKCKVNNQALPAPVQKTISKPTGQPREPQVYVLAPHRDELSKNKVSVTCLVKDFYPTDIDIEWKSNGQPEPETKYSTTPAQLDSDGSYFLYSKLTVETNRWQQGTTFTCAVMHEALHHHYTEKSVSKSPGK
B2: equine IgG7 N434Y mutant (antibody, part only; not given: Variable domains, not shown: another chain or arm of the molecule)
constant: ASTTAPKVFPLASHSAATSGSTVALGCLVSSYFPEPVTVSWNSGALTSGVHTFPSVLQSSGLYSLSSMVTVPASSLKSQTYICNVAHPASSTKVDKKIVIKECGGCPTCPECLSVGPSVFIFPPKPKDVLMISRTPTVTCVVVDVGHDFPDVQFNWYVDGVETHTATTEPKQEQNNSTYRVVSILAIQHKDWLSGKEFKCKVNNQALPAPVQKTISKPTGQPREPQVYVLAPHRDELSKNKVSVTCLVKDFYPTDIDIEWKSNGQPEPETKYSTTPAQLDSDGSYFLYSKLTVETNRWQQGTTFTCAVMHEALHYHYTEKSVSKSPGK
B3: equine IgG7 N434W mutant (antibody, part only; not given: variable domains, not shown: another chain or arm of the molecule)
constant: ASTTAPKVFPLASHSAATSGSTVALGCLVSSYFPEPVTVSWNSGALTSGVHTFPSVLQSSGLYSLSSMVTVPASSLKSQTYICNVAHPASSTKVDKKIVIKECGGCPTCPECLSVGPSVFIFPPKPKDVLMISRTPTVTCVVVDVGHDFPDVQFNWYVDGVETHTATTEPKQEQNNSTYRVVSILAIQHKDWLSGKEFKCKVNNQALPAPVQKTISKPTGQPREPQVYVLAPHRDELSKNKVSVTCLVKDFYPTDIDIEWKSNGQPEPETKYSTTPAQLDSDGSYFLYSKLTVETNRWQQGTTFTCAVMHEALHWHYTEKSVSKSPGK
B4: equine IgG7 N434T mutant (antibody, part only; not given: variable domains, not shown: another chain or arm of the molecule)
constant: ASTTAPKVFPLASHSAATSGSTVALGCLVSSYFPEPVTVSWNSGALTSGVHTFPSVLQSSGLYSLSSMVTVPASSLKSQTYICNVAHPASSTKVDKKIVIKECGGCPTCPECLSVGPSVFIFPPKPKDVLMISRTPTVTCVVVDVGHDFPDVQFNWYVDGVETHTATTEPKQEQNNSTYRVVSILAIQHKDWLSGKEFKCKVNNQALPAPVQKTISKPTGQPREPQVYVLAPHRDELSKNKVSVTCLVKDFYPTDIDIEWKSNGQPEPETKYSTTPAQLDSDGSYFLYSKLTVETNRWQQGTTFTCAVMHEALHTHYTEKSVSKSPGK
B5: equine IgG7 D312F mutant (antibody, part only; not given: Variable domains, not shown: another chain or arm of the molecule)
constant: ASTTAPKVFPLASHSAATSGSTVALGCLVSSYFPEPVTVSWNSGALTSGVHTFPSVLQSSGLYSLSSMVTVPASSLKSQTYICNVAHPASSTKVDKKIVIKECGGCPTCPECLSVGPSVFIFPPKPKDVLMISRTPTVTCVVVDVGHDFPDVQFNWYVDGVETHTATTEPKQEQNNSTYRVVSILAIQHKFWLSGKEFKCKVNNQALPAPVQKTISKPTGQPREPQVYVLAPHRDELSKNKVSVTCLVKDFYPTDIDIEWKSNGQPEPETKYSTTPAQLDSDGSYFLYSKLTVETNRWQQGTTFTCAVMHEALHNHYTEKSVSKSPGK
B6: equine IgG7 D312G mutant (antibody, part only; not given: Variable domains, not shown: another chain or arm of the molecule)
constant: ASTTAPKVFPLASHSAATSGSTVALGCLVSSYFPEPVTVSWNSGALTSGVHTFPSVLQSSGLYSLSSMVTVPASSLKSQTYICNVAHPASSTKVDKKIVIKECGGCPTCPECLSVGPSVFIFPPKPKDVLMISRTPTVTCVVVDVGHDFPDVQFNWYVDGVETHTATTEPKQEQNNSTYRVVSILAIQHKGWLSGKEFKCKVNNQALPAPVQKTISKPTGQPREPQVYVLAPHRDELSKNKVSVTCLVKDFYPTDIDIEWKSNGQPEPETKYSTTPAQLDSDGSYFLYSKLTVETNRWQQGTTFTCAVMHEALHNHYTEKSVSKSPGK
B7: equine IgG7 D312E mutant (antibody, part only; not given: variable domains, not shown: another chain or arm of the molecule)
constant: ASTTAPKVFPLASHSAATSGSTVALGCLVSSYFPEPVTVSWNSGALTSGVHTFPSVLQSSGLYSLSSMVTVPASSLKSQTYICNVAHPASSTKVDKKIVIKECGGCPTCPECLSVGPSVFIFPPKPKDVLMISRTPTVTCVVVDVGHDFPDVQFNWYVDGVETHTATTEPKQEQNNSTYRVVSILAIQHKEWLSGKEFKCKVNNQALPAPVQKTISKPTGQPREPQVYVLAPHRDELSKNKVSVTCLVKDFYPTDIDIEWKSNGQPEPETKYSTTPAQLDSDGSYFLYSKLTVETNRWQQGTTFTCAVMHEALHNHYTEKSVSKSPGK
B8: equine IgG7 D312H mutant (antibody, part only; not given: variable domains, not shown: another chain or arm of the molecule)
constant: ASTTAPKVFPLASHSAATSGSTVALGCLVSSYFPEPVTVSWNSGALTSGVHTFPSVLQSSGLYSLSSMVTVPASSLKSQTYICNVAHPASSTKVDKKIVIKECGGCPTCPECLSVGPSVFIFPPKPKDVLMISRTPTVTCVVVDVGHDFPDVQFNWYVDGVETHTATTEPKQEQNNSTYRVVSILAIQHKHWLSGKEFKCKVNNQALPAPVQKTISKPTGQPREPQVYVLAPHRDELSKNKVSVTCLVKDFYPTDIDIEWKSNGQPEPETKYSTTPAQLDSDGSYFLYSKLTVETNRWQQGTTFTCAVMHEALHNHYTEKSVSKSPGK
B9: equine IgG7 D312A mutant (antibody, part only; not given: Variable domains, not shown: another chain or arm of the molecule)
constant: ASTTAPKVFPLASHSAATSGSTVALGCLVSSYFPEPVTVSWNSGALTSGVHTFPSVLQSSGLYSLSSMVTVPASSLKSQTYICNVAHPASSTKVDKKIVIKECGGCPTCPECLSVGPSVFIFPPKPKDVLMISRTPTVTCVVVDVGHDFPDVQFNWYVDGVETHTATTEPKQEQNNSTYRVVSILAIQHKAWLSGKEFKCKVNNQALPAPVQKTISKPTGQPREPQVYVLAPHRDELSKNKVSVTCLVKDFYPTDIDIEWKSNGQPEPETKYSTTPAQLDSDGSYFLYSKLTVETNRWQQGTTFTCAVMHEALHNHYTEKSVSKSPGK
B10: equine IgG7 D312C mutant (antibody, part only; not given: variable domains, not shown: another chain or arm of the molecule)
constant: ASTTAPKVFPLASHSAATSGSTVALGCLVSSYFPEPVTVSWNSGALTSGVHTFPSVLQSSGLYSLSSMVTVPASSLKSQTYICNVAHPASSTKVDKKIVIKECGGCPTCPECLSVGPSVFIFPPKPKDVLMISRTPTVTCVVVDVGHDFPDVQFNWYVDGVETHTATTEPKQEQNNSTYRVVSILAIQHKCWLSGKEFKCKVNNQALPAPVQKTISKPTGQPREPQVYVLAPHRDELSKNKVSVTCLVKDFYPTDIDIEWKSNGQPEPETKYSTTPAQLDSDGSYFLYSKLTVETNRWQQGTTFTCAVMHEALHNHYTEKSVSKSPGK
B11: equine IgG7 N434P mutant (antibody, part only; not given: Variable domains, not shown: another chain or arm of the molecule)
constant: ASTTAPKVFPLASHSAATSGSTVALGCLVSSYFPEPVTVSWNSGALTSGVHTFPSVLQSSGLYSLSSMVTVPASSLKSQTYICNVAHPASSTKVDKKIVIKECGGCPTCPECLSVGPSVFIFPPKPKDVLMISRTPTVTCVVVDVGHDFPDVQFNWYVDGVETHTATTEPKQEQNNSTYRVVSILAIQHKDWLSGKEFKCKVNNQALPAPVQKTISKPTGQPREPQVYVLAPHRDELSKNKVSVTCLVKDFYPTDIDIEWKSNGQPEPETKYSTTPAQLDSDGSYFLYSKLTVETNRWQQGTTFTCAVMHEALHPHYTEKSVSKSPGK
B12: equine IgG7 N434R mutant (antibody, part only; not given: Variable domains, not shown: another chain or arm of the molecule)
constant: ASTTAPKVFPLASHSAATSGSTVALGCLVSSYFPEPVTVSWNSGALTSGVHTFPSVLQSSGLYSLSSMVTVPASSLKSQTYICNVAHPASSTKVDKKIVIKECGGCPTCPECLSVGPSVFIFPPKPKDVLMISRTPTVTCVVVDVGHDFPDVQFNWYVDGVETHTATTEPKQEQNNSTYRVVSILAIQHKDWLSGKEFKCKVNNQALPAPVQKTISKPTGQPREPQVYVLAPHRDELSKNKVSVTCLVKDFYPTDIDIEWKSNGQPEPETKYSTTPAQLDSDGSYFLYSKLTVETNRWQQGTTFTCAVMHEALHRHYTEKSVSKSPGK
B13: equine IgG7 N434S mutant (antibody, part only; not given: variable domains, not shown: another chain or arm of the molecule)
constant: ASTTAPKVFPLASHSAATSGSTVALGCLVSSYFPEPVTVSWNSGALTSGVHTFPSVLQSSGLYSLSSMVTVPASSLKSQTYICNVAHPASSTKVDKKIVIKECGGCPTCPECLSVGPSVFIFPPKPKDVLMISRTPTVTCVVVDVGHDFPDVQFNWYVDGVETHTATTEPKQEQNNSTYRVVSILAIQHKDWLSGKEFKCKVNNQALPAPVQKTISKPTGQPREPQVYVLAPHRDELSKNKVSVTCLVKDFYPTDIDIEWKSNGQPEPETKYSTTPAQLDSDGSYFLYSKLTVETNRWQQGTTFTCAVMHEALHSHYTEKSVSKSPGK
B14: equine IgG7 N434V mutant (antibody, part only; not given: Variable domains, not shown: another chain or arm of the molecule)
constant: ASTTAPKVFPLASHSAATSGSTVALGCLVSSYFPEPVTVSWNSGALTSGVHTFPSVLQSSGLYSLSSMVTVPASSLKSQTYICNVAHPASSTKVDKKIVIKECGGCPTCPECLSVGPSVFIFPPKPKDVLMISRTPTVTCVVVDVGHDFPDVQFNWYVDGVETHTATTEPKQEQNNSTYRVVSILAIQHKDWLSGKEFKCKVNNQALPAPVQKTISKPTGQPREPQVYVLAPHRDELSKNKVSVTCLVKDFYPTDIDIEWKSNGQPEPETKYSTTPAQLDSDGSYFLYSKLTVETNRWQQGTTFTCAVMHEALHVHYTEKSVSKSPGK
B15: equine IgG7 N434K mutant (antibody, part only; not given: variable domains, not shown: another chain or arm of the molecule; small tags and cut ends)
constant: ASTTAPKVFPLASHSAATSGSTVALGCLVSSYFPEPVTVSWNSGALTSGVHTFPSVLQSSGLYSLSSMVTVPASSLKSQTYICNVAHPASSTKVDKKIVIKECGGCPTCPECLSVGPSVFIFPPKPKDVLMISRTPTVTCVVVDVGHDFPDVQFNWYVDGVETHTATTEPKQEQNNSTYRVVSILAIQHKDWLSGKEFKCKVNNQALPAPVQKTISKPTGQPREPQVYVLAPHRDELSKNKVSVTCLVKDFYPTDIDIEWKSNGQPEPETKYSTTPAQLDSDGSYFLYSKLTVETNRWQQGTTFTCAVMHEALHKHYTEKSVSKSPGK
B16: equine IgG7 D312I mutant (antibody, part only; not given: variable domains, not shown: another chain or arm of the molecule)
constant: ASTTAPKVFPLASHSAATSGSTVALGCLVSSYFPEPVTVSWNSGALTSGVHTFPSVLQSSGLYSLSSMVTVPASSLKSQTYICNVAHPASSTKVDKKIVIKECGGCPTCPECLSVGPSVFIFPPKPKDVLMISRTPTVTCVVVDVGHDFPDVQFNWYVDGVETHTATTEPKQEQNNSTYRVVSILAIQHKIWLSGKEFKCKVNNQALPAPVQKTISKPTGQPREPQVYVLAPHRDELSKNKVSVTCLVKDFYPTDIDIEWKSNGQPEPETKYSTTPAQLDSDGSYFLYSKLTVETNRWQQGTTFTCAVMHEALHNHYTEKSVSKSPGK

The experiment has as its target equine FcRn (large alpha subunit p51) in complex with equine beta-2-microglobulin (equine) (UniProt F6XZ61). Description: SPR (Biacore), pH 6.
Sequence of UniProt F6XZ61 (F6XZ61 entry or part of it, one chain of several): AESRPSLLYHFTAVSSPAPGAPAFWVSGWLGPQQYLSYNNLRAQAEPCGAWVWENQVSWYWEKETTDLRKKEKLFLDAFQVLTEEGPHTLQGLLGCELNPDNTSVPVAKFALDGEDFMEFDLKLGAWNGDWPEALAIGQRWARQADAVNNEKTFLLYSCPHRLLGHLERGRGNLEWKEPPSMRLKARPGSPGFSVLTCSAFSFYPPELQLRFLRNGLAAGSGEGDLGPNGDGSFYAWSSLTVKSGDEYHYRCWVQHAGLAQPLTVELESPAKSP
Take B1: the Kd (as a rule, the concentration at which binding is half-saturated) amounted to 25.3 nM.

With B2, the Kd was determined as 3.7 nM. Consider B3, for which the dissociation constant Kd was 1.3 nM. The result for B4 reads 159 nM. The molecule B5 displayed a Kd of 8.6 nM. In turn, B6 had a dissociation constant (Kd) of 38.4 nM. Molecule B7 gave a Kd of 42.5 nM.

The molecule B8 registered a Kd of 10.4 nM. As for B9, the dissociation constant (Kd) was found to be 17.6 nM. The result for B10 reads 26.5 nM.

The molecule B11 yielded a Kd of 194 nM.

B12 gave a Kd of 273 nM. The result for B13 reads 114 nM. Take B14: the Kd stood at 6700 nM. The result for B15 reads 31.7 nM; that for B16, 15.2 nM.
